Assay results from the supplement of paper PMC9112550, “Optimization of the antimicrobial peptide Bac7 by deep mutational scanning” (BMC Biology, 2022).

What follows are sequences tested on Escherichia coli TOP10 (assay: shrunken log2 fold change of peptide-encoding DNA abundance (4.5 h post-induction vs induction); higher = less antimicrobial activity (less host growth inhibition)). Conditions: time post-induction: 4.5 h; library: site-saturation at positions 5, 18, 19, 20.
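Also: peptides expressed intracellularly from a pBAD plasmid library in pooled LB shake-flask culture, induced with 0.3% L-arabinose, DNA abundance read by NGS, three biological replicates, DESeq2 with apeglm shrinkage.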

Sequence | shrunken log2 fold change
RRIRWRPPRLPRPRPRPGECPRP | 0.00474
RRIRERPPRLPRPRPRPDKEPRP | -0.0205
RRIRGRPPRLPRPRPRPYNPPRP | -0.504
RRIRARPPRLPRPRPRPWDNPRP | 0.0421
RRIRTRPPRLPRPRPRPWATPRP | -0.00422
RRIRDRPPRLPRPRPRPHWQPRP | -0.149
RRIRCRPPRLPRPRPRPSMNPRP | -0.757
RRIRVRPPRLPRPRPRPEEVPRP | 0.0207
RRIRVRPPRLPRPRPRPMMCPRP | -0.00174
RRIRMRPPRLPRPRPRPSHSPRP | -0.266
RRIRTRPPRLPRPRPRPMPIPRP | -0.0197
RRIRVRPPRLPRPRPRPRTDPRP | -0.191
RRIRTRPPRLPRPRPRPGVMPRP | 0.0539
RRIRWRPPRLPRPRPRPAGTPRP | 0.349
RRIRTRPPRLPRPRPRPGWWPRP | 0.158
RRIRWRPPRLPRPRPRPPADPRP | 0.846
RRIRHRPPRLPRPRPRPGCEPRP | 0.103
RRIRDRPPRLPRPRPRPIGCPRP | 0.242
RRIRSRPPRLPRPRPRPKHGPRP | -0.22
RRIRFRPPRLPRPRPRPKQCPRP | -0.0712
RRIRSRPPRLPRPRPRPSIYPRP | -0.00286
RRIRVRPPRLPRPRPRPVMLPRP | -0.0602
RRIRMRPPRLPRPRPRPCFHPRP | -0.318
RRIRIRPPRLPRPRPRPCFPPRP | -0.569
RRIRVRPPRLPRPRPRPWNCPRP | 0.0131

Sequence | shrunken log2 fold change
RRIRYRPPRLPRPRPRPMCIPRP | -0.101
RRIRARPPRLPRPRPRPWDKPRP | 0.0886
RRIRARPPRLPRPRPRPDFCPRP | 0.168
RRIRNRPPRLPRPRPRPNMNPRP | -0.265
RRIRIRPPRLPRPRPRPRWTPRP | 0.0809
RRIRLRPPRLPRPRPRPELAPRP | 0.0176
RRIRVRPPRLPRPRPRPSDGPRP | 0.000198
RRIRDRPPRLPRPRPRPLQSPRP | -0.015
RRIRQRPPRLPRPRPRPGAPPRP | 0.307
RRIRPRPPRLPRPRPRPMATPRP | 0.323
RRIRNRPPRLPRPRPRPFISPRP | -0.0484
RRIRERPPRLPRPRPRPHGLPRP | -0.161
RRIRGRPPRLPRPRPRPVCAPRP | 1.06
RRIRDRPPRLPRPRPRPWDNPRP | -0.00183
RRIRCRPPRLPRPRPRPAYWPRP | 0.293
RRIRFRPPRLPRPRPRPTMNPRP | -0.511
RRIRLRPPRLPRPRPRPPHGPRP | 0.223
RRIRVRPPRLPRPRPRPRDKPRP | -0.179
RRIRCRPPRLPRPRPRPQAEPRP | 0.215
RRIRIRPPRLPRPRPRPVFWPRP | 0.201
RRIRKRPPRLPRPRPRPESRPRP | 0.625
RRIRERPPRLPRPRPRPFEIPRP | -0.203
RRIRCRPPRLPRPRPRPGCQPRP | 0.00667
RRIRHRPPRLPRPRPRPLLDPRP | -0.117
RRIRGRPPRLPRPRPRPSVAPRP | 1.37

Sequence | shrunken log2 fold change
RRIRGRPPRLPRPRPRPFLMPRP | 0.364
RRIRARPPRLPRPRPRPLGAPRP | 0.726
RRIRCRPPRLPRPRPRPNCCPRP | 0.188
RRIRERPPRLPRPRPRPFVDPRP | -0.0208
RRIRIRPPRLPRPRPRPADVPRP | -0.134
RRIRKRPPRLPRPRPRPCNQPRP | 0.0585
RRIRCRPPRLPRPRPRPNGSPRP | -0.398
RRIRMRPPRLPRPRPRPENCPRP | 0.0159
RRIRARPPRLPRPRPRPIFLPRP | -0.0119
RRIRNRPPRLPRPRPRPMGAPRP | 0.115
RRIRSRPPRLPRPRPRPSMNPRP | -0.454
RRIRLRPPRLPRPRPRPSWVPRP | -0.141
RRIRSRPPRLPRPRPRPYVTPRP | -0.266
RRIRPRPPRLPRPRPRPTQYPRP | 0.287
RRIRRRPPRLPRPRPRPCWQPRP | 0.285
RRIRWRPPRLPRPRPRPIGFPRP | 0.0993
RRIRPRPPRLPRPRPRPDDTPRP | -0.085
RRIRVRPPRLPRPRPRPRMAPRP | 0.199
RRIRVRPPRLPRPRPRPYIDPRP | -0.372
RRIRYRPPRLPRPRPRPPFEPRP | -0.0385
RRIRKRPPRLPRPRPRPTMQPRP | 0.626
RRIRWRPPRLPRPRPRPGYHPRP | -0.263
RRIRERPPRLPRPRPRPFNCPRP | 0.0173
RRIRMRPPRLPRPRPRPESCPRP | 3.68
RRIRARPPRLPRPRPRPTNIPRP | -0.354

Sequence | shrunken log2 fold change
RRIRSRPPRLPRPRPRPVMAPRP | 0.304
RRIRQRPPRLPRPRPRPVSQPRP | 0.00815
RRIRDRPPRLPRPRPRPKPTPRP | 0.0678
RRIRSRPPRLPRPRPRPLMDPRP | -0.00235
RRIRQRPPRLPRPRPRPVALPRP | -0.0318
RRIRMRPPRLPRPRPRPYSIPRP | -0.0122
RRIRVRPPRLPRPRPRPYMMPRP | -0.00989
RRIRTRPPRLPRPRPRPLTEPRP | -0.23
RRIRSRPPRLPRPRPRPGEIPRP | 0.223
RRIRYRPPRLPRPRPRPLCCPRP | -0.391
RRIRRRPPRLPRPRPRPAQWPRP | 0.912
RRIRCRPPRLPRPRPRPDGKPRP | -0.0306
RRIRRRPPRLPRPRPRPWSQPRP | -0.132
RRIRIRPPRLPRPRPRPIEFPRP | -0.0138
RRIRMRPPRLPRPRPRPPWAPRP | 0.911
RRIRWRPPRLPRPRPRPIPKPRP | 0.102
RRIRWRPPRLPRPRPRPTKAPRP | 0.122
RRIRTRPPRLPRPRPRPVEPPRP | 0.00744
RRIRRRPPRLPRPRPRPKWGPRP | 1.2
RRIRGRPPRLPRPRPRPHGQPRP | 0.578
RRIRARPPRLPRPRPRPHYLPRP | -0.503
RRIRSRPPRLPRPRPRPDMDPRP | -0.201
RRIRCRPPRLPRPRPRPQRMPRP | -0.0914
RRIRLRPPRLPRPRPRPAREPRP | 0.678
RRIRHRPPRLPRPRPRPLEVPRP | -0.184

Sequence | shrunken log2 fold change
RRIRDRPPRLPRPRPRPTDFPRP | -0.0352
RRIRARPPRLPRPRPRPTNGPRP | -0.0688
RRIRSRPPRLPRPRPRPCGGPRP | 0.012
RRIRPRPPRLPRPRPRPERFPRP | -0.0264
RRIRSRPPRLPRPRPRPFLMPRP | 3.07
RRIRARPPRLPRPRPRPWMAPRP | 0.0631
RRIRFRPPRLPRPRPRPAHYPRP | -0.059
RRIRARPPRLPRPRPRPISMPRP | 0.0208
RRIRKRPPRLPRPRPRPREMPRP | -0.0629
RRIRHRPPRLPRPRPRPNPYPRP | -0.161
RRIRLRPPRLPRPRPRPHRQPRP | 0.115
RRIRRRPPRLPRPRPRPFRTPRP | -0.0909
RRIRTRPPRLPRPRPRPFGNPRP | 0.101
RRIRARPPRLPRPRPRPIWIPRP | 0.123
RRIRARPPRLPRPRPRPYDWPRP | 0.0315
RRIRCRPPRLPRPRPRPWHDPRP | -0.142
RRIRFRPPRLPRPRPRPEGTPRP | 0.055
RRIRDRPPRLPRPRPRPCKHPRP | -0.181
RRIRCRPPRLPRPRPRPKNDPRP | -0.048
RRIRKRPPRLPRPRPRPVSNPRP | -0.212
RRIRQRPPRLPRPRPRPYPNPRP | -0.0164
RRIRGRPPRLPRPRPRPFNSPRP | 0.0167
RRIRARPPRLPRPRPRPFFGPRP | 0.349
RRIRVRPPRLPRPRPRPKPRPRP | 0.638
RRIRCRPPRLPRPRPRPNYMPRP | -0.677

Sequence | shrunken log2 fold change
RRIRFRPPRLPRPRPRPDEPPRP | 0.248
RRIRKRPPRLPRPRPRPAFHPRP | 0.0641
RRIRKRPPRLPRPRPRPANWPRP | 0.596
RRIRQRPPRLPRPRPRPTPIPRP | 0.182
RRIRCRPPRLPRPRPRPHNAPRP | -0.171
RRIRRRPPRLPRPRPRPTMWPRP | 0.364
RRIRQRPPRLPRPRPRPKWPPRP | 0.166
RRIRSRPPRLPRPRPRPAGAPRP | 0.36
RRIRGRPPRLPRPRPRPLGQPRP | 0.756
RRIRARPPRLPRPRPRPPMNPRP | 0.134
RRIRKRPPRLPRPRPRPCFFPRP | 0.113
RRIRWRPPRLPRPRPRPHEWPRP | 0.0987
RRIRRRPPRLPRPRPRPAPTPRP | 0.793
RRIRSRPPRLPRPRPRPQHLPRP | -0.372
RRIRSRPPRLPRPRPRPYPEPRP | -0.355
RRIRVRPPRLPRPRPRPDTCPRP | -0.135
RRIRRRPPRLPRPRPRPFAGPRP | -0.0164
RRIRFRPPRLPRPRPRPTMSPRP | -0.236
RRIRMRPPRLPRPRPRPCPPPRP | 0.106
RRIRIRPPRLPRPRPRPTIYPRP | -0.865
RRIRSRPPRLPRPRPRPTPLPRP | 0.159
RRIRCRPPRLPRPRPRPFTWPRP | -0.188
RRIRSRPPRLPRPRPRPHWIPRP | -0.279
RRIRTRPPRLPRPRPRPDVPPRP | -0.0167
RRIRCRPPRLPRPRPRPGYWPRP | 0.196
